Assay results reported in patent US20220204580A1 (AstraZeneca / MedImmune, published 2022).
Numbered stars: 1 amine (or outer) side, 2 acyl side, 3 side chain; on linkers, the order of the positions; unused ones are H or OH. Bridge positions count the residues as written; N and C are the ends. Square brackets hold non-standard residues; d marks the D form. Side chains are listed from the residue outwards. Ends that are not written are not given here. * marks the point of attachment. C18 diacid = O=C(O)CCCCCCCCCCCCCCCCC(=O)*; γGlu = O=C(O)[C@H](CCC(=O)[*:2])N[*:1]; αMeF = C[C@](N)(Cc1ccccc1)C(=O)O; Dab = NCC[C@H](N)C(=O)O; Aib = CC(C)(N)C(=O)O

T1: human calcitonin receptor (human, UniProt P30988 25-474)
T1 sequence (looked up): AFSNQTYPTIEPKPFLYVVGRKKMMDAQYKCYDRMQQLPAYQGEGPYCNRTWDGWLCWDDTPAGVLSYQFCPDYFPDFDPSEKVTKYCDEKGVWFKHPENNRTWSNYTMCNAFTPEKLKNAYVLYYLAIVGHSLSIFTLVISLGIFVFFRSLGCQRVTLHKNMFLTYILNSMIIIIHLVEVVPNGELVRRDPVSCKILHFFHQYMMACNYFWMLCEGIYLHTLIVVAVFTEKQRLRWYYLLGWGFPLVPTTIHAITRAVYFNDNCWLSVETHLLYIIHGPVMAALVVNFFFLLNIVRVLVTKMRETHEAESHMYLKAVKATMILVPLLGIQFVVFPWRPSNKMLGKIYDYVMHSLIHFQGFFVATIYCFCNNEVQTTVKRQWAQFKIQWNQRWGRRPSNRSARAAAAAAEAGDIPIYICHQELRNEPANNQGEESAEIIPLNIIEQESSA

T2: human amylin receptor (calcitonin receptor co-expressed with receptor activity modifying protein, RAMP3) (human, UniProt P30988 25-474; O60896 24-148)
T2 sequence (looked up) 1: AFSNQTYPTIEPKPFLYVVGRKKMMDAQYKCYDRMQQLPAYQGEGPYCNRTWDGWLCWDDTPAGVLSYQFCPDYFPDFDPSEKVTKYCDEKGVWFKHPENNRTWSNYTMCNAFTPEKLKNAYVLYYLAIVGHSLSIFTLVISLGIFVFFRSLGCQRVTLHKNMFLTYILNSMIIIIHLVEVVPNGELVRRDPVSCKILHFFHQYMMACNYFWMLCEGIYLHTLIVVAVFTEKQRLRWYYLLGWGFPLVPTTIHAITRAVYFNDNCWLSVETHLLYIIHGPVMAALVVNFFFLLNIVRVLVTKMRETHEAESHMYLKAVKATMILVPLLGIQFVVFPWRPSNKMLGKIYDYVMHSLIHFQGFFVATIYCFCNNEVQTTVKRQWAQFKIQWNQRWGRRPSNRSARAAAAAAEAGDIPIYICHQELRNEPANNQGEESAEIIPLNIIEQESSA
T2 sequence (looked up) 2: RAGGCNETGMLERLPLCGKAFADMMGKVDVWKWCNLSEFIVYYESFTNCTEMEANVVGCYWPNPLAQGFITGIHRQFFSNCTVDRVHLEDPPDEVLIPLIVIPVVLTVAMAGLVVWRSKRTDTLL

T3: rat amylin receptor (calcitonin receptor co-expressed with receptor activity modifying protein, RAMP3) (rat, UniProt P32214 25-516; Q9JJ73 23-147)
T3 sequence (looked up) 1: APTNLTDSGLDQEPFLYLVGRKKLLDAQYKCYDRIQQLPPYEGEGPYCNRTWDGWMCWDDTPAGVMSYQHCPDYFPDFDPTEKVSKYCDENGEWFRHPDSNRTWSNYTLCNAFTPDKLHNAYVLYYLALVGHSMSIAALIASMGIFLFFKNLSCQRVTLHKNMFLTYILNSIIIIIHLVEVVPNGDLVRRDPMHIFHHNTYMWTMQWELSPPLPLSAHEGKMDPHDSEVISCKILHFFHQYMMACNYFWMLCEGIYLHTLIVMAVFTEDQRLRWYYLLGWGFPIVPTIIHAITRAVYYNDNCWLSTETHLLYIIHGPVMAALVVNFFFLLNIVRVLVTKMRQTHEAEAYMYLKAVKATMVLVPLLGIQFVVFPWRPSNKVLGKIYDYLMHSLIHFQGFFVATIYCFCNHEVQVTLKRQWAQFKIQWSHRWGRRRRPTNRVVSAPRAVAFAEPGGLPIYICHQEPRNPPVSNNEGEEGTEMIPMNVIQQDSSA
T3 sequence (looked up) 2: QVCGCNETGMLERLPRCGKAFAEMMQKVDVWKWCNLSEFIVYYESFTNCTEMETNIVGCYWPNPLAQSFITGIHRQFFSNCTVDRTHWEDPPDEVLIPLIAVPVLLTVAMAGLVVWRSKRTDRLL

T4: rat calcitonin receptor (rat, UniProt P32214 25-516)
T4 sequence (looked up): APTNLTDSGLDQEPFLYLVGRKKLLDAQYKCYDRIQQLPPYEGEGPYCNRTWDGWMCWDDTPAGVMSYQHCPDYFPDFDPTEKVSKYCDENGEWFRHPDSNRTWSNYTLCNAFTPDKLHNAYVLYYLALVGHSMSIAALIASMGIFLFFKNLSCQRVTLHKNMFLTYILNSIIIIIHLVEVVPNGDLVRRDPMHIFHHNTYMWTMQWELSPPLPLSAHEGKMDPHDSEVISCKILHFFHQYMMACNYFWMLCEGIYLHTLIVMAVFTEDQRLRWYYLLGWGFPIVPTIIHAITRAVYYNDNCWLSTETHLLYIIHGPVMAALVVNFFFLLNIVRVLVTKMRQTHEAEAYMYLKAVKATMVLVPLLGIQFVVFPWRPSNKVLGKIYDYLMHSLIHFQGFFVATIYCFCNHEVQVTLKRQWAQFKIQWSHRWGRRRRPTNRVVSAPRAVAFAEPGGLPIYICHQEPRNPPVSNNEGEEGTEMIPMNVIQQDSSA


Assays:
Test in all cases: cell-based or functional assay
[1] = molecular target: T1, human calcitonin receptor
[2] = molecular target: T2, human amylin receptor (calcitonin …)
[3] = molecular target: T3, rat amylin receptor (calcitonin …)
[4] = molecular target: T4, rat calcitonin receptor

Binder | EC50 (cAMP production) [1] [nM] | EC50 (cAMP production) [2] [pM] | Ratio (EC50 hCTR / EC50 hAMYR3) [2] | EC50 (cAMP production) [3] [pM] | EC50 (cAMP production) [4] [pM]
K([γGlu-γGlu-C18 diacid])CNTATCATQRLANFLVHSS[Aib]NFPAILSPTNVGSNTY-NH2 (disulfide 2-7; N-terminus assumed; SMILES CC[C@H](C)[C@H](NC(=O)[C@H](C)NC(=O)[C@@H]1CCCN1C(=O)[C@H](Cc1ccccc1)NC(=O)[C@H](CC(N)=O)NC(=O)C(C)(C)NC(=O)[C@H](CO)NC(=O)[C@H](CO)NC(=O)[C@H](Cc1c[nH]cn1)NC(=O)[C@@H](NC(=O)[C@H](CC(C)C)NC(=O)[C@H](Cc1ccccc1)NC(=O)[C@H](CC(N)=O)NC(=O)[C@H](C)NC(=O)[C@H](CC(C)C)NC(=O)[C@H](CCCNC(=N)N)NC(=O)[C@H](CCC(N)=O)NC(=O)[C@@H](NC(=O)[C@H](C)NC(=O)[C@@H]1CSSC[C@H](NC(=O)[C@@H](N)CCCCNC(=O)CC[C@H](NC(=O)CC[C@H](NC(=O)CCCCCCCCCCCCCCCCC(=O)O)C(=O)O)C(=O)O)C(=O)N[C@@H](CC(N)=O)C(=O)N[C@@H]([C@@H](C)O)C(=O)N[C@@H](C)C(=O)N[C@@H]([C@@H](C)O)C(=O)N1)[C@@H](C)O)C(C)C)C(=O)N[C@@H](CC(C)C)C(=O)N[C@@H](CO)C(=O)N1CCC[C@H]1C(=O)N[C@H](C(=O)N[C@@H](CC(N)=O)C(=O)N[C@H](C(=O)NCC(=O)N[C@@H](CO)C(=O)N[C@@H](CC(N)=O)C(=O)N[C@H](C(=O)N[C@@H](Cc1ccc(O)cc1)C(N)=O)[C@@H](C)O)C(C)C)[C@@H](C)O) [Peptide 9 (SEQ ID NO: 9)] | 13.5 | 320 | 42 | 17.8 | 9720
{C18 diacid-γGlu}-CNTATCATQRLAEFLRHSSNN[αMeF]GPILPPTNVGSNTY-NH2 (disulfide 1-6; numbers in words are those of the source; also: K1 deleted) [Peptide 10 (SEQ ID NO: 10)] | 2.73 | 183 | 15 | 12.1 | 2780
K([γGlu-C18 diacid])CNTATCATQRLANFLRHSS[Aib]NFGPILPPTNVGSNTY-NH2 (disulfide 2-7; N-terminus assumed; SMILES CC[C@H](C)[C@H](NC(=O)[C@@H]1CCCN1C(=O)CNC(=O)[C@H](Cc1ccccc1)NC(=O)[C@H](CC(N)=O)NC(=O)C(C)(C)NC(=O)[C@H](CO)NC(=O)[C@H](CO)NC(=O)[C@H](Cc1c[nH]cn1)NC(=O)[C@H](CCCNC(=N)N)NC(=O)[C@H](CC(C)C)NC(=O)[C@H](Cc1ccccc1)NC(=O)[C@H](CC(N)=O)NC(=O)[C@H](C)NC(=O)[C@H](CC(C)C)NC(=O)[C@H](CCCNC(=N)N)NC(=O)[C@H](CCC(N)=O)NC(=O)[C@@H](NC(=O)[C@H](C)NC(=O)[C@@H]1CSSC[C@H](NC(=O)[C@@H](N)CCCCNC(=O)CC[C@H](NC(=O)CCCCCCCCCCCCCCCCC(=O)O)C(=O)O)C(=O)N[C@@H](CC(N)=O)C(=O)N[C@@H]([C@@H](C)O)C(=O)N[C@@H](C)C(=O)N[C@@H]([C@@H](C)O)C(=O)N1)[C@@H](C)O)C(=O)N[C@@H](CC(C)C)C(=O)N1CCC[C@H]1C(=O)N1CCC[C@H]1C(=O)N[C@H](C(=O)N[C@@H](CC(N)=O)C(=O)N[C@H](C(=O)NCC(=O)N[C@@H](CO)C(=O)N[C@@H](CC(N)=O)C(=O)N[C@H](C(=O)N[C@@H](Cc1ccc(O)cc1)C(N)=O)[C@@H](C)O)C(C)C)[C@@H](C)O) [Peptide 48 (SEQ ID NO: 48)] | 5.27 | 126 | 42 | 4.8 | 2430
K([γGlu-C18 diacid])CNTATCATQRLANFLRHSS[Aib]NFGPILPPTEVGSNTY-NH2 (disulfide 2-7; N-terminus assumed; SMILES CC[C@H](C)[C@H](NC(=O)[C@@H]1CCCN1C(=O)CNC(=O)[C@H](Cc1ccccc1)NC(=O)[C@H](CC(N)=O)NC(=O)C(C)(C)NC(=O)[C@H](CO)NC(=O)[C@H](CO)NC(=O)[C@H](Cc1c[nH]cn1)NC(=O)[C@H](CCCNC(=N)N)NC(=O)[C@H](CC(C)C)NC(=O)[C@H](Cc1ccccc1)NC(=O)[C@H](CC(N)=O)NC(=O)[C@H](C)NC(=O)[C@H](CC(C)C)NC(=O)[C@H](CCCNC(=N)N)NC(=O)[C@H](CCC(N)=O)NC(=O)[C@@H](NC(=O)[C@H](C)NC(=O)[C@@H]1CSSC[C@H](NC(=O)[C@@H](N)CCCCNC(=O)CC[C@H](NC(=O)CCCCCCCCCCCCCCCCC(=O)O)C(=O)O)C(=O)N[C@@H](CC(N)=O)C(=O)N[C@@H]([C@@H](C)O)C(=O)N[C@@H](C)C(=O)N[C@@H]([C@@H](C)O)C(=O)N1)[C@@H](C)O)C(=O)N[C@@H](CC(C)C)C(=O)N1CCC[C@H]1C(=O)N1CCC[C@H]1C(=O)N[C@H](C(=O)N[C@@H](CCC(=O)O)C(=O)N[C@H](C(=O)NCC(=O)N[C@@H](CO)C(=O)N[C@@H](CC(N)=O)C(=O)N[C@H](C(=O)N[C@@H](Cc1ccc(O)cc1)C(N)=O)[C@@H](C)O)C(C)C)[C@@H](C)O) [Peptide 44 (SEQ ID NO: 44)] | 6.26 | 284 | 22 | 18.5 | 2240
K([γGlu-γGlu-C18 diacid])CNTATCATQRLANFLVHSS[Dab]NFPAILSPTNVGSNTY-NH2 (disulfide 2-7; N-terminus assumed; SMILES CC[C@H](C)[C@H](NC(=O)[C@H](C)NC(=O)[C@@H]1CCCN1C(=O)[C@H](Cc1ccccc1)NC(=O)[C@H](CC(N)=O)NC(=O)[C@H](CCN)NC(=O)[C@H](CO)NC(=O)[C@H](CO)NC(=O)[C@H](Cc1c[nH]cn1)NC(=O)[C@@H](NC(=O)[C@H](CC(C)C)NC(=O)[C@H](Cc1ccccc1)NC(=O)[C@H](CC(N)=O)NC(=O)[C@H](C)NC(=O)[C@H](CC(C)C)NC(=O)[C@H](CCCNC(=N)N)NC(=O)[C@H](CCC(N)=O)NC(=O)[C@@H](NC(=O)[C@H](C)NC(=O)[C@@H]1CSSC[C@H](NC(=O)[C@@H](N)CCCCNC(=O)CC[C@H](NC(=O)CC[C@H](NC(=O)CCCCCCCCCCCCCCCCC(=O)O)C(=O)O)C(=O)O)C(=O)N[C@@H](CC(N)=O)C(=O)N[C@@H]([C@@H](C)O)C(=O)N[C@@H](C)C(=O)N[C@@H]([C@@H](C)O)C(=O)N1)[C@@H](C)O)C(C)C)C(=O)N[C@@H](CC(C)C)C(=O)N[C@@H](CO)C(=O)N1CCC[C@H]1C(=O)N[C@H](C(=O)N[C@@H](CC(N)=O)C(=O)N[C@H](C(=O)NCC(=O)N[C@@H](CO)C(=O)N[C@@H](CC(N)=O)C(=O)N[C@H](C(=O)N[C@@H](Cc1ccc(O)cc1)C(N)=O)[C@@H](C)O)C(C)C)[C@@H](C)O) [Peptide 8 (SEQ ID NO: 8)] | 20.2 | 375 | 54 | 25.6 | 19900
